Source: patent publication US20220048991A1 (BIOND BIOLOGICS, published 2022)

B1: 15G8-23 (humanized 15G8, VH2/Vk3) (antibody, human IgG4 S228P, kappa, V domains shown)
VH: DVQLQGSGPGLVKPSETLSLTCSVTGYSITSGYYWNWIRQFPGKKLEWMGYISYDGSNNYNPSLKNRITISRDTSKNQFSLKLSSVTAADTATYYCAHGYSYYYAMDAWGQGTTVTVSS
VL: DIQMTQSPSSLSASVGDRVTITCRTSQDISNYLNWYQQKPGKAVKLLISYTSRLHSGVPSRFSGSGSGTDYTLTISSLQPEDFATYYCQQGNTLPTFGQGTKLEIKR
notes: Humanized IgG4 (S228P, L235E), kappa
B2: 15G8-32 (humanized 15G8, VH3/Vk2) (antibody, human IgG4 S228P, kappa, V domains shown)
VH: DVQLQGSGPGLVKPSETLSLTCSVTGYSITSGYYWNWIRQPPGKGLEWMGYISYDGSNNYNPSLKNRITISRDTSKNQFSLKLSSVTAADTATYYCAHGYSYYYAMDAWGQGTTVTVSS
VL: DIQMTQSPSSLSASVGDRVTITCRTSQDISNYLNWYQQKPGKAVKLLISYTSRLHSGVPSRFSGSGSGTDYTLTISSLQPEDFATYFCQQGNTLPTFGQGTKLEIKR
notes: as for B1
B3: 15G8-53 (humanized 15G8, VH5/Vk3) (antibody, human IgG4 S228P, kappa, V domains shown)
VH: QVQLQGSGPGLVKPSETLSLTCTVTGYSITSGYYWNWIRQPPGKGLEWIGYISYDGSNNYNPSLKNRVTISRDTSKNQFSLKLSSVTAADTATYYCAHGYSYYYAMDAWGQGTTVTVSS
VL: DIQMTQSPSSLSASVGDRVTITCRTSQDISNYLNWYQQKPGKAVKLLISYTSRLHSGVPSRFSGSGSGTDYTLTISSLQPEDFATYYCQQGNTLPTFGQGTKLEIKR
notes: as for B1
B4: humanized 15G8 VH4/Vk2 (antibody, IgG4, V domains shown)
VH: QVQLQGSGPGLVKPSETLSLTCSVTGYSITSGYYWNWIRQPPGKGLEWMGYISYDGSNNYNPSLKNRVTISRDTSKNQFSLKLSSVTAADTATYYCAHGYSYYYAMDAWGQGTTVTVSS
VL: DIQMTQSPSSLSASVGDRVTITCRTSQDISNYLNWYQQKPGKAVKLLISYTSRLHSGVPSRFSGSGSGTDYTLTISSLQPEDFATYFCQQGNTLPTFGQGTKLEIK
notes: Humanized IgG4 (S228P, L235E), kappa; tested as supernatant of transiently transfected HEK EBNA cells
B5: 15G8-34 (humanized 15G8, VH3/Vk4) (antibody, IgG4, V domains shown)
VH: DVQLQGSGPGLVKPSETLSLTCSVTGYSITSGYYWNWIRQPPGKGLEWMGYISYDGSNNYNPSLKNRITISRDTSKNQFSLKLSSVTAADTATYYCAHGYSYYYAMDAWGQGTTVTVSS
VL: DIQMTQSPSSLSASVGDRVTITCRTSQDISNYLNWYQQKPGKAPKLLISYTSRLHSGVPSRFSGSGSGTDYTLTISSLQPEDFATYFCQQGNTLPTFGQGTKLEIK
notes: as for B1
B6: 15G8-44 (humanized 15G8, VH4/Vk4) (antibody, IgG4, V domains shown)
VH: QVQLQGSGPGLVKPSETLSLTCSVTGYSITSGYYWNWIRQPPGKGLEWMGYISYDGSNNYNPSLKNRVTISRDTSKNQFSLKLSSVTAADTATYYCAHGYSYYYAMDAWGQGTTVTVSS
VL: DIQMTQSPSSLSASVGDRVTITCRTSQDISNYLNWYQQKPGKAPKLLISYTSRLHSGVPSRFSGSGSGTDYTLTISSLQPEDFATYFCQQGNTLPTFGQGTKLEIK
notes: as for B1
B7: 15G8-54 (humanized 15G8, VH5/Vk4) (antibody, IgG4, V domains shown)
VH: QVQLQGSGPGLVKPSETLSLTCTVTGYSITSGYYWNWIRQPPGKGLEWIGYISYDGSNNYNPSLKNRVTISRDTSKNQFSLKLSSVTAADTATYYCAHGYSYYYAMDAWGQGTTVTVSS
VL: DIQMTQSPSSLSASVGDRVTITCRTSQDISNYLNWYQQKPGKAPKLLISYTSRLHSGVPSRFSGSGSGTDYTLTISSLQPEDFATYFCQQGNTLPTFGQGTKLEIK
notes: as for B1

Assays:
[1] = target: T1, recombinant ILT2 (human) (human, UniProt Q8NHL6 24-461); test: SPR (Biacore T200), HEK EBNA supernatants on recombinant ILT2 peptide
T1 construct: also called recombinant ILT2 peptide; ILT2 protein
Method: (§1) During grafting of the 15G8 CDRs, five heavy chains and four kappa light chains were generated. These chains were designated VH1-5 and Vk1-4. By combining each heavy chain with each light chain twenty different resultant antibodies are possible. All twenty possible antibodies were transiently expressed in HEK EBNA cells, and the supernatants were tested for binding to recombinant ILT2 peptide using a Biacore T200. The chimeric 15G8 antibody was used as control.

[2] = target: T1, recombinant ILT2 (human); test: SPR (Biacore T200); KD relative to Control (chimeric 15G8)
Method: as §1

T1 sequence (Q8NHL6 24-461 limits assumed): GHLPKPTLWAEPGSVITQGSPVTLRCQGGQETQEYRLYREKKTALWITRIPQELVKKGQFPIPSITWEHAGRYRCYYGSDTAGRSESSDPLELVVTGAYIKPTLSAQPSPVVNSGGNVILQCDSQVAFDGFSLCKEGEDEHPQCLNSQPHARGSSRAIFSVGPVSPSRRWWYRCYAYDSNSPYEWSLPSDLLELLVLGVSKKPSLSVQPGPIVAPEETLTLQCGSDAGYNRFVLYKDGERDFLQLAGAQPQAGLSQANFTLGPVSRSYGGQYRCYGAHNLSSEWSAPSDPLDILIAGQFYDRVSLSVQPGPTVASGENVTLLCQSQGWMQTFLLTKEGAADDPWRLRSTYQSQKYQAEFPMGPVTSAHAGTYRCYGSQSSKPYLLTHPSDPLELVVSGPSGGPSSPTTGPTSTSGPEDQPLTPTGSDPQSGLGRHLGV

Row | Binder | Kd [1] [nM] | koff [1] [s⁻¹] | kon [1] [M⁻¹ s⁻¹] | Relative KD [2]
1 | B1 | 8.31 | 0.0076 | 915000 | 0.66
2 | B2 | 8.19 | 0.00664 | 811000 | 0.65
3 | B3 | 10.6 | 0.0072 | 682000 | 0.84
4 | B4 | 9.93 | 0.00685 | 690000 | 0.79
5 | B5 | 12.6 | 0.00832 | 661000 | 1
6 | B6 | 13.5 | 0.00977 | 724000 | 1.07
7 | B7 | 10.3 | 0.0117 | 1.14e+06 | 0.82
